Reference: patent publication US8853367

Biological target: chimeric receptor comprising mouse TNFR1 external domain (AA 1 to AA 210) linked to the transmembrane and intracellular domains of mouse RANK (AA 210 to AA 625) (mouse)
Test: cell-based or functional assay

Sequence of chimeric receptor comprising mouse TNFR1 external domain (AA 1 to AA 210) linked to the transmembrane and intracellular domains of mouse RANK (AA 210 to AA 625) (mouse) (chain, as listed by the source mutant): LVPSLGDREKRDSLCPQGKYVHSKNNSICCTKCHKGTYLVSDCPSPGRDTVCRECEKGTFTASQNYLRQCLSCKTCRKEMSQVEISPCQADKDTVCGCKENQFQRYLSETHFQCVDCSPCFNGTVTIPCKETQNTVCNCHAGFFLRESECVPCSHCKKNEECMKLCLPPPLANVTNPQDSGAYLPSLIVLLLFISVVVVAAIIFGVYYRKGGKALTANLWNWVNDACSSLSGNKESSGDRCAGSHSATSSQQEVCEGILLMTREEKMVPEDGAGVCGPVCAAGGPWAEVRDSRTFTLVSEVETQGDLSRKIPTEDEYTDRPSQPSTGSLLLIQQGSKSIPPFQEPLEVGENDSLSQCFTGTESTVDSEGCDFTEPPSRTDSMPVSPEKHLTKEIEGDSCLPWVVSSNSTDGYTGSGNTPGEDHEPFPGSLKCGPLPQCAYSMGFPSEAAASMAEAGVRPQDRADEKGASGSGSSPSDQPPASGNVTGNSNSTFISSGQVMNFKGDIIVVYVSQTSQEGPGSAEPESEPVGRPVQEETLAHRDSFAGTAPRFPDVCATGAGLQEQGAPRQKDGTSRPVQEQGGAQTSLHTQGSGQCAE

osteoclast formation, lowest TNFα concentration still active: 1 ng/mL
Substance: Recombinant mouse TNFα (410-TRNC-050, R&D Systems) (from UniProt P06804 84-235) (ligand)
